In patent publication US20220056119A1 (Regeneron, published 2022):
Numbering of substitutions follows the chain as printed.

Tests used:
[1] = molecular target: T1, Activin A (human, UniProt P08476 311-426); experiment: cell-based or functional assay
T1 sequence: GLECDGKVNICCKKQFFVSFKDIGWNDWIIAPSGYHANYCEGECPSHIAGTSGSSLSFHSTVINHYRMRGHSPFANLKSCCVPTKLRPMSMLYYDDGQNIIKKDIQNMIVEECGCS

[2] = molecular target: T2, Activin AB (human, UniProt P08476 311-426; P09529 293-407); experiment: cell-based or functional assay
T2 chain 1: T1 sequence
T2 chain 2: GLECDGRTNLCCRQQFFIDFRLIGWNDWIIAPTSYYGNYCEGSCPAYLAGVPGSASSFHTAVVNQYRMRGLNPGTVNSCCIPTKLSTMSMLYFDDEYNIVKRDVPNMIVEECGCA

[3] = molecular target: T3, Activin AC (human, UniProt P55103 237-352); experiment: cell-based or functional assay
T3 sequence 1: T1 sequence
T3 sequence 2: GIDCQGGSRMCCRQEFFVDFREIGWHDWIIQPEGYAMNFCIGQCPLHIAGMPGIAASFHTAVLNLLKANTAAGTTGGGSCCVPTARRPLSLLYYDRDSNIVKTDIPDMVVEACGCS

[4] = molecular target: T1, Activin A; experiment: SPR, 5 nM Activin A + 0.00 nM binder (no inhibitor) over hActRIIA-hFc surface
Procedure: (§1) The binding signal (RU) was measured at 150 seconds after the start of the injection, and this signal was subtracted by the measured RU value for a negative control reference surface to determine the specific binding signal.

[5] = molecular target: T1, Activin A; experiment: SPR, 5 nM Activin A + 30 nM binder over hActRIIA-hFc surface
Procedure: as §1

[6] = molecular target: T1, Activin A; experiment: SPR, 5 nM Activin A + 0.94 nM binder over Follistatin-288 surface
Procedure: as §1

[7] = molecular target: T1, Activin A; experiment: SPR, 5 nM Activin A + 1.88 nM binder over hActRIIA-hFc surface
Procedure: as §1

[8] = molecular target: T1, Activin A; experiment: SPR, 5 nM Activin A + 15 nM binder over Follistatin-288 surface
Procedure: as §1

[9] = molecular target: T1, Activin A; experiment: SPR, 5 nM Activin A + 15 nM binder over hActRIIA-hFc surface
Procedure: as §1

[10] = molecular target: T1, Activin A; experiment: SPR, 5 nM Activin A + 60 nM binder over hActRIIA-hFc surface
Procedure: as §1

[11] = molecular target: T1, Activin A; experiment: SPR, 5 nM Activin A + 60 nM binder over Follistatin-288 surface
Procedure: as §1

[12] = molecular target: T1, Activin A; experiment: SPR, 5 nM Activin A + 7.5 nM binder over Follistatin-288 surface
Procedure: as §1

[13] = molecular target: T1, Activin A; experiment: SPR, 5 nM Activin A + 1.88 nM binder over Follistatin-288 surface
Procedure: as §1

[14] = molecular target: T1, Activin A; experiment: SPR, 5 nM Activin A + 7.50 nM binder over hActRIIA-hFc surface
Procedure: as §1

[15] = molecular target: T1, Activin A; experiment: SPR, 5 nM Activin A + 3.75 nM binder over hActRIIA-hFc surface
Procedure: as §1

[16] = molecular target: T1, Activin A; experiment: SPR, 5 nM Activin A + 30 nM binder over Follistatin-288 surface
Procedure: as §1

[17] = molecular target: T1, Activin A; experiment: SPR, 5 nM Activin A + 0 nM binder (no inhibitor) over Follistatin-288 surface
Procedure: as §1

[18] = molecular target: T1, Activin A; experiment: SPR, 5 nM Activin A + 3.75 nM binder over Follistatin-288 surface
Procedure: as §1

[19] = molecular target: T1, Activin A; experiment: SPR, 5 nM Activin A + 0.94 nM binder over hActRIIA-hFc surface
Procedure: as §1

B1: H4H10438P2 (antibody, human IgG4, V domains shown)
VH: EVQLVESGGGLVQPGRSLRLSCAASGFTFDDNAMHWVRQPPGKGLEWVSGISWNSGSIGYADSVKGRFTISRDNAKNSLYLQMNSLRAEDTALYYCAKDINDILTGYPLFDYWGQGTLVTVSS
VL: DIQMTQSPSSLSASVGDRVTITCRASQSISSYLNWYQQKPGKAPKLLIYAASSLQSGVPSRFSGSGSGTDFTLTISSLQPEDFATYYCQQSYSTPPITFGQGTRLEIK
[1]
  IC50, inhibition of 100 pM Activin A in A204/CAGAx12-Luc luciferase bioassay: 2.6e-10 M

B2: H4H10437P2 (antibody, human IgG4, V domains shown)
VH: EVQLVESGGGLVQPGRSLRLSCAASGFTFDDYAMHWVRQAPGKGLEWVSGISWNSGSIGYADSVKGRFTISRDNAKNSLYLQMNSLRAEDTALYYCAKDIMGNWDYFYGMDVWGQGTTVTVSS
VL: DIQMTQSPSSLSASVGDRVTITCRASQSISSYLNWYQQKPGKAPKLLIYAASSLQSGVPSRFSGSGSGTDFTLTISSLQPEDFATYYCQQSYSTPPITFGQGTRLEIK
[1]
  IC50, inhibition of 100 pM Activin A in A204/CAGAx12-Luc luciferase bioassay: 2.9e-10 M

B3: H4H10452P2 (antibody, human IgG4, V domains shown)
VH: QVQLQESGPGLVKPSETLSLTCTVSGGSFSSHFWNWIRQSPGRGLEWIGYIYYSGGTNYNPSFKSRVTMSVDTSKNQFSLKLSSVTAADTAVFYCARARSGITFGGVLVPGSFDIWGQGTMVTVSS
VL: not shown
[1]
  IC50, inhibition of 100 pM Activin A in A204/CAGAx12-Luc luciferase bioassay: 5.8e-11 M

B4: H4H10445P2 (antibody, human IgG4, V domains shown)
VH: QVQLQESGPGLVKPSETLSLICSVSGGSFSSHFWSWIRQPPGKGLEWIGYVLYSGGTNYNPSLKSRVTISVDTSKNQFFLKLSSVTAADTADYYCARAISGITFGGIIVPGSFDIWGQGTMVTVSS
VL: not shown
[1]
  IC50, inhibition of 100 pM Activin A in A204/CAGAx12-Luc luciferase bioassay: 5.3e-11 M

B5: H4H10426P (antibody, human IgG4, V domains shown)
VH: EVQLVESGGNLVQSGRSLRLSCTASGFAFDDFAMHWVRQVPGKGLEWVSGISWNSDTIGYADSVKGRFTISRDNAQNSLFLQMDSLRAEDTALYYCVKDMVRGLIGYYYYGMDVWGQGTTVTVSS
VL: EIVLTQSPAILSLSPGERAILSCRASQSIYTYLSWYQQTPGRAPRLLIYETSSRATGIPARFIGSGSGTDFTLTISSLEPEDFAFYYCQHRSDWPPTFGQGTKLEIK
[1]
  IC50, inhibition of 100 pM Activin A in A204/CAGAx12-Luc luciferase bioassay: 2.3e-10 M

B6: H4H10432P2 (antibody, human IgG4, V domains shown)
VH: EVQLVESGGGLVQPGRSLTLSCAVSGFTFDDHAMHWVRQAPGKGLEWVSGISWNSVSIGYADSVKGRFTISRDNAKTSLYLQMNSLRVDDTALYYCVQDLNDILTGYPLFDFWGQGTLVTVSS
VL: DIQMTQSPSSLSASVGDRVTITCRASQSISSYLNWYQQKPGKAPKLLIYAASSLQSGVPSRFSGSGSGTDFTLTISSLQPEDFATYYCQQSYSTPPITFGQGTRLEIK
[2]
  IC50, inhibition of 30 pM Activin AB in A204/CAGAx12-Luc luciferase bioassay: 8e-10 M
[1]
  IC50, inhibition of 100 pM Activin A in A204/CAGAx12-Luc luciferase bioassay: 1.1e-10 M
[3]
  IC50, inhibition of 4 nM Activin AC in A204/CAGAx12-Luc luciferase bioassay: 2.8 nM

B7: H4H10424P (antibody, human IgG4, V domains shown)
VH: QVQLVESGGGVVQPGRSLRLSCAASGFTFSSYGMHWVRQAPGKGLEWVAVIWYDGSNKYNADSVKGRFTISRDNSKNTVYLQMNSLRAEDTAVYYCARARNYDILTGYYNLGMDVWGQGTTVTVSS
VL: DIQMTQSPSSLSASVGDRVTITCRASQGIRNDLGWYQQKPGKAPKRLIYAASSLQSGVPSRFSGSGSGTEFTLTISSLQPEDFATYYCLQHNSYPYTFGQGTKLEIK
[1]
  IC50, inhibition of 100 pM Activin A in A204/CAGAx12-Luc luciferase bioassay: 7.6e-10 M

B8: H4H10430P (antibody, human IgG4, V domains shown)
VH: EVQLVESGGGLVQPGRSLRLSCKASGFAFDDFAMHWVRQAPGKGLEWVSGIVWNSGDIGYADSVKGRFTISRDNAKNSLYLQLNSLRTEDTALYFCVKDMVRGLMGFNYYGMDVWGQGTTVTVSS
VL: EIVLTQSPATLSLSPGERATLSCRASQTISTYLVWYRQRPGQAPSLLIYDASNRATDIPARFSGSGSGTDFTLTISSLEPEDFAVYYCQQRSNWPITFGQGTRLEIK
notes: also called mAb1
[2]
  IC50, inhibition of 30 pM Activin AB in A204/CAGAx12-Luc luciferase bioassay: 1e-10 M
[1]
  IC50, inhibition of 100 pM Activin A in A204/CAGAx12-Luc luciferase bioassay: 6.1e-11 M
[3]
  IC50, inhibition of 4 nM Activin AC in A204/CAGAx12-Luc luciferase bioassay: 0.93 nM
[4]
  % bound RU w/ no inhibitor: 100%
[5]
  % bound RU w/ no inhibitor: 2%
[6]
  % bound RU w/ no inhibitor: 79%
[7]
  % bound RU w/ no inhibitor: 62%
[8]
  % bound RU w/ no inhibitor: 1%
[9]
  % bound RU w/ no inhibitor: 2%
[10]
  % bound RU w/ no inhibitor: 2%
[11]
  % bound RU w/ no inhibitor: 1%
[12]
  % bound RU w/ no inhibitor: 1%
[13]
  % bound RU w/ no inhibitor: 59%
[14]
  % bound RU w/ no inhibitor: 3%
[15]
  % bound RU w/ no inhibitor: 19%
[16]
  % bound RU w/ no inhibitor: 1%
[17]
  % bound RU w/ no inhibitor: 100%
[18]
  % bound RU w/ no inhibitor: 15%
[19]
  % bound RU w/ no inhibitor: 81%

B9: H4H10423P (antibody, human IgG4, V domains shown)
VH: QVQLQQSGPGLLKPSQTLSLTCAISGDSVSSNSAAWSWIRQSPSRGLEWLGRTYYRANWFNDYALSVKSRITINPVTSTNHFSLQLHSVTPEDTAVYYCAREGALGYYFDSWGQGTLVTVSS
VL: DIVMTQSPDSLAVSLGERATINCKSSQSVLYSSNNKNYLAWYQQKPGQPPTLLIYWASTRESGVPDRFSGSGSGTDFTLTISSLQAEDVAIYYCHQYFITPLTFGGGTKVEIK
[1]
  IC50, inhibition of 100 pM Activin A in A204/CAGAx12-Luc luciferase bioassay: 2e-10 M
[4]
  % bound RU w/ no inhibitor: 100%
[5]
  % bound RU w/ no inhibitor: 114%
[6]
  % bound RU w/ no inhibitor: 120%
[7]
  % bound RU w/ no inhibitor: 114%
[8]
  % bound RU w/ no inhibitor: 96%
[9]
  % bound RU w/ no inhibitor: 112%
[10]
  % bound RU w/ no inhibitor: 116%
[11]
  % bound RU w/ no inhibitor: 93%
[12]
  % bound RU w/ no inhibitor: 97%
[13]
  % bound RU w/ no inhibitor: 122%
[14]
  % bound RU w/ no inhibitor: 110%
[15]
  % bound RU w/ no inhibitor: 111%
[16]
  % bound RU w/ no inhibitor: 94%
[17]
  % bound RU w/ no inhibitor: 100%
[18]
  % bound RU w/ no inhibitor: 103%
[19]
  % bound RU w/ no inhibitor: 112%

B10: H2aM10965N (antibody, mouse IgG2a, V domains shown)
VH: RVQLVQSGSEVKKPGASVKVSCRASGYIFTSYDINWVRQATGQGLEWMGWMNPNNGNTAYTQKFQGRVTMTRNTSISTAYMELSSLRSEDTAVYYCARKGLLWFGKLLGYGMDVWGQGTTVTVSS
VL: not shown
[1]
  IC50, inhibition of 100 pM Activin A in A204/CAGAx12-Luc luciferase bioassay: 3.5e-09 M

B11: H4H10468P2 (antibody, human IgG4, V domains shown)
VH: QVQLQESGPGLVKPSETLSLTCTVSGGSFSSHFWSWIRQPPGKGLEWIGYIYYSGGTHYNPSLESRVTISVDTSKNQFSLKLNSVTAADTAVYYCARARSGITFGGLIVPGSFDIWGQGTMVTVSS
VL: not shown
[2]
  IC50, inhibition of 30 pM Activin AB in A204/CAGAx12-Luc luciferase bioassay: 2.3e-09 M
[1]
  IC50, inhibition of 100 pM Activin A in A204/CAGAx12-Luc luciferase bioassay: 3.9e-11 M
[3]
  IC50, inhibition of 4 nM Activin AC in A204/CAGAx12-Luc luciferase bioassay: 3.4 nM

B12: H4H10448P2 (antibody, human IgG4, V domains shown)
VH: B11 VH with S28T, Y52F, S54T, H58N, Y59H, E64K, V71I, N83T, L107V
VL: not shown
[1]
  IC50, inhibition of 100 pM Activin A in A204/CAGAx12-Luc luciferase bioassay: 4.6e-11 M

B13: H4H10447P2 (antibody, human IgG4, V domains shown)
VH: B4 VH with I21T, V51I, L52H, F79S, S83T, I107M, I115V, Q118E
VL: not shown
[1]
  IC50, inhibition of 100 pM Activin A in A204/CAGAx12-Luc luciferase bioassay: 7.8e-11 M

B14: H4H10442P2 (antibody, human IgG4, V domains shown)
VH: B11 VH with L20I, S35T, I51L, Y52H, H58S, E64K, T68I
VL: not shown
[2]
  IC50, inhibition of 30 pM Activin AB in A204/CAGAx12-Luc luciferase bioassay: 2.2e-09 M
[1]
  IC50, inhibition of 100 pM Activin A in A204/CAGAx12-Luc luciferase bioassay: 5.6e-11 M
[3]
  IC50, inhibition of 4 nM Activin AC in A204/CAGAx12-Luc luciferase bioassay: 6.5 nM
[4]
  % bound RU w/ no inhibitor: 100%
[5]
  % bound RU w/ no inhibitor: 117%
[6]
  % bound RU w/ no inhibitor: 73%
[7]
  % bound RU w/ no inhibitor: 114%
[8]
  % bound RU w/ no inhibitor: 3%
[9]
  % bound RU w/ no inhibitor: 113%
[10]
  % bound RU w/ no inhibitor: 118%
[11]
  % bound RU w/ no inhibitor: 3%
[12]
  % bound RU w/ no inhibitor: 3%
[13]
  % bound RU w/ no inhibitor: 46%
[14]
  % bound RU w/ no inhibitor: 105%
[15]
  % bound RU w/ no inhibitor: 95%
[16]
  % bound RU w/ no inhibitor: 3%
[17]
  % bound RU w/ no inhibitor: 100%
[18]
  % bound RU w/ no inhibitor: 6%
[19]
  % bound RU w/ no inhibitor: 114%
